From PMC7498313, “The Sac10b homolog from Sulfolobus islandicus is an RNA chaperone”
Changes are numbered by the printed parent chain.

B1: 44-nt ssRNA (t) (ssRNA)
RNA: UGACUUCCGCGCGUGAGCUCGAUUCCACAUACCCUAAAUCGCUC
B2: 44-bp dsRNA (dsRNA)
RNA 1: B1 RNA
RNA 2: GAGCGAUUUAGGGUAUGUGGAAUCGAGCUCACGCGCGGAAGUCA

How the values were obtained:
Sis10b K16A [1] = target: T1, Sis10b K16A (Sulfolobus islandicus REY15A, UniProt F0NHH1 1-97, K16A); assay: EMSA; 37°C; slightly weaker than dsRNA; EMSA: 20 mM HEPES-NaOH pH 7.0, 1 mM DTT, 100 ug/ml BSA, 6% glycerol, 30 min at 25, 37 or 55°C; gel in 0.5x TBE at the same temperature; settings: protein: recombinant; tags: none; chain copies: 2; label: 5' 32P; single strand
T1 sequence: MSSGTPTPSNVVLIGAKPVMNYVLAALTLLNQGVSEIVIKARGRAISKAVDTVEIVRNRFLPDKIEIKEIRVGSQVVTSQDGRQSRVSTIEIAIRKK

Sis10b K17R [2] = target: T2, Sis10b K17R (Sulfolobus islandicus REY15A, UniProt F0NHH1 1-97, K17R); assay: as above; settings: protein: recombinant; tags: none; chain copies: 2; label: 5' 32P; single strand
T2 sequence: T1 sequence with A16K, K17R

Sis10b K17A [3] = target: T3, Sis10b K17A (Sulfolobus islandicus REY15A, UniProt F0NHH1 1-97, K17A); assay: EMSA; 55°C; no ssRNA preference over dsRNA; EMSA: 20 mM HEPES-NaOH pH 7.0, 1 mM DTT, 100 ug/ml BSA, 6% glycerol, 30 min at 25, 37 or 55°C; gel in 0.5x TBE at the same temperature; settings: protein: recombinant; tags: none; chain copies: 2; label: 5' 32P; single strand
T3 sequence: T1 sequence with A16K, K17A

[4] = target: T4, Sis10b M20E/L24E/L27E/F60E (Sulfolobus islandicus REY15A, UniProt F0NHH1 1-97, M20E;L24E;L27E;F60E); assay: EMSA; 55°C; EMSA: 20 mM HEPES-NaOH pH 7.0, 1 mM DTT, 100 ug/ml BSA, 6% glycerol, 30 min at 25, 37 or 55°C; gel in 0.5x TBE at the same temperature; settings: protein: recombinant; tags: none; chain copies: 2; label: 5' 32P on top strand; blunt
T4 sequence: T1 sequence with A16K, M20E, L24E, L27E, F60E

Sis10b ΔN12 = target: T5, Sis10b ΔN12 (Sulfolobus islandicus REY15A, UniProt F0NHH1 13-97, del1-12); assay: as above; settings: protein: recombinant; tags: none; chain copies: 2; label: 5' 32P on top strand; blunt
T5 sequence: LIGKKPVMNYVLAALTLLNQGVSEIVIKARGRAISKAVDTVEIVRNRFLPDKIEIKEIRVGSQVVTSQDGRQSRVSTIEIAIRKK

Sis10b K17R [5] = target: T2, Sis10b K17R; assay: as above; settings: protein: recombinant; tags: none; chain copies: 2; label: 5' 32P on top strand; blunt
Sis10b K17A [6] = target: T3, Sis10b K17A; assay: EMSA; 37°C; 1.1-1.7-fold better than ssRNA; EMSA: 20 mM HEPES-NaOH pH 7.0, 1 mM DTT, 100 ug/ml BSA, 6% glycerol, 30 min at 25, 37 or 55°C; gel in 0.5x TBE at the same temperature; settings: protein: recombinant; tags: none; chain copies: 2; label: 5' 32P on top strand; blunt
Sis10b K16A [7] = target: T1, Sis10b K16A; assay: as above; settings: protein: recombinant; tags: none; chain copies: 2; label: 5' 32P on top strand; blunt

Binder | binding result (Sis10b K16A [1]) | binding result (Sis10b K17R [2]) | binding result (Sis10b K17A [3]) | Kd [4] [nM] | Kd (Sis10b ΔN12) [nM] | Kd (Sis10b K17R [5]) [nM] | binding result (Sis10b K17A [6]) | binding result (Sis10b K16A [7])
B1 | binds | binds | binds | – | – | – | – | –
B2 | – | – | – | ~82.3 | ~98.1 | ~28.2 | binds | binds
